Assay results as given in article PMC3314968, “The UBAP1 Subunit of ESCRT-I Interacts with Ubiquitin via a SOUBA Domain” (Structure(London, England:1993), 2012).

Molecular target: T1, monoubiquitin (SIGMA U6253) (UniProt P0CG48 1-76)
T1 construct: ubiquitin, the 76-residue cut product of a ubiquitin precursor; source: bought: SIGMA U6253
Assay: ITC; Microcal ITC200; 20 mM Tris-HCl (pH 7.5), 100 mM NaCl, 1 mM TCEP; SOUBA domain at 150 μM in the cell, 38 injections of monoubiquitin at 3 mM; single set of independent sites
Conditions: both partners purified

B1: human UBAP1 SOUBA domain (389-502), wild-type (domain or fragment, UniProt Q9NZ09 389-502, looked up)
chain: SPSERQCVETVVNMGYSYECVLRAMKKKGENIEQILDYLFAHGQLCEKGFDPLLVEEALEMHQCSEEKMMEFLQLMSKFKEMGFELKDIKEVLLLHNNDQDNALEDLMARAGAS
notes: UBAP1, human, residues 389-502 (SOUBA domain); The His6 tag is followed by a TEV protease cleavage site; whether it was cut is told in the Supplemental Experimental Procedures; Used unlabeled or 15N- (13C/15N-) labeled in NMR; also called UBAP1(389-502); UBAP1_389-502; source: recombinant, from the pOPTH(tev) expression vector, purified (details in Supplemental Experimental Procedures)
Kd: ~70 µM
